This is an account of results in the supplement of paper PMC9170038.

In this data set the test system is MS2 coat protein. The data set is described as follows: apparent KD of MS2 coat protein; higher = weaker reporter binding. The note with it: Eterna round: R107. An outline of the steps:
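Designed RNA switches were transcribed on-chip from Illumina sequencing clusters and titrated with SNAP-549-labelled MS2 coat protein in twofold steps from 0.7 or 1.5 nM up to 3 µM. Each step lasted 0.8–1.5 h at first and 10–20 min by the end, in 100 mM Tris-HCl pH 7.5, 80 mM KCl and 4 mM MgCl2, without or with constant ligand. Apparent KD is the median, for each design, of fits to normalised cluster binding curves.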

[1] abbreviates: input ligand: theophylline 20 uM.
The mark [2] stands for this setting: input ligand: tryptophan 2.4 mM.
The mark [3] stands for this setting: input ligand: theophylline 2 mM.

In the case of “CAUAGCAAAAGUGAUACCAGAGUUCGAGGGAACAUGAGGAUCACCCAUGUGCUUGUACAACUCCCUUGGCAGCACAGAGCAAUUA [theeternabot_sameState_MS2_Theo_B_16]”, the “apparent KD of MS2 coat protein” value turned out to be 24.3 nM (input ligand: arginine 13.2 mM), 22.1 nM under setting [1] and 26.9 nM under setting [2].
Regarding “CAUAUAUAUGGAAGGAGCGCGAUUACAUAACAUGAGGAUCACCCAUGUAAGAAAUUAUUCAUGCAGGUAGGUCGCCAUAUAUAUG [Same State Arginine B GF6]”, the “apparent KD of MS2 coat protein” value is 29.3 nM (input ligand: arginine 13.2 mM); 24 nM (input ligand: none); 35.3 nM under setting [1]; 27 nM under setting [3]; 26.6 nM under setting [2].
Take “CAUUUUAGAAAACUAAAAUGAGUGGGUGAACGAGGACCGGUACGGCCGCCACUCGGACAUGAGGAUCACCCAUGUCCAUGUGAAA [AstrosExyTryA#22]”: the “apparent KD of MS2 coat protein” value is, setting by setting: (input ligand: arginine 13.2 mM) 22.8 nM; (input ligand: none) 14.1 nM; under setting [1], 15 nM; under setting [3], 14.4 nM; under setting [2], 37.8 nM.
As to “CCAUAAGUACCGGUCCUCAGAUCCUCAUGACGAGGACCGGUACGGCCGCCACUCGAAACAUGAGGAUCACCCAUGUAAUAAUAUC [Brourdmod17]”, the “apparent KD of MS2 coat protein” value reads like this: (input ligand: arginine 13.2 mM) 25.5 nM; under setting [1], 53.1 nM; under setting [3], 66 nM.
Regarding “CCAUGGUUGACGGCCGCCACUCAUUAGUCUUUGAGGUUGGCACAUGAGGAUCACCCAUGUCUGCAGAGGACCGGGUCUCGCCACA [theeternabot_sameState_MS2_Trp_B_15]”, the “apparent KD of MS2 coat protein” value by setting is: (input ligand: arginine 13.2 mM) 39.8 nM; under setting [1], 67.3 nM; under setting [3], 54.4 nM.
Take “CCCAGUCAUAACAAAGGAAAUAUACUCGAAGGAGCGUCAUAGUAGGCAGGUAGGUCGCGAGACAUGAGGAUCACCCAUGUAGAGA [swwvmullin]”: the “apparent KD of MS2 coat protein” value is, setting by setting: (input ligand: arginine 13.2 mM) 21.5 nM; (input ligand: none) 47.5 nM; under setting [1], 72 nM; under setting [3], 75.1 nM; under setting [2], 57.8 nM.
For “CCCAGUUAUAACAAAGGAAUUAUACUCGAAGGAGCGUCAUAGUAGGCAGGUAGGUCGCGAGACAUGAGGAUCACCCAUGUAGAGA [k,lmullin]”, the “apparent KD of MS2 coat protein” value (input ligand: arginine 13.2 mM) amounted to 32.1 nM; the “apparent KD of MS2 coat protein” value (input ligand: none) was 42.3 nM; the “apparent KD of MS2 coat protein” value under setting [1] worked out at 56.3 nM; the “apparent KD of MS2 coat protein” value under setting [3] was determined as 49.4 nM; the “apparent KD of MS2 coat protein” value under setting [2] came out at 50 nM.
Turning to “CCGUCACAUGAGGAUCACCCAUGUGCGGAAGGAGCGGACGAUAGUCCAGGUAGGUCGCCGUAUAGCCAAUGACCAGCAGUGUCGG [XARG-A 22]”, the “apparent KD of MS2 coat protein” value is, setting by setting: (input ligand: arginine 13.2 mM) 12.4 nM; (input ligand: none) 13.9 nM; under setting [1], 16.6 nM; under setting [3], 14.8 nM; under setting [2], 15 nM.
The matching figures for “CCUAUCCAGUCGGCCGCCACUGAAAACAGUGGGUGAACAUGAGGAUCACCCAUGUAAUAAUAAAACAGGACCGGGACUGUAUAGG [Ex Tryptophan B 22]”: 290 nM, 452 nM, 458 nM, 882 nM and 369 nM.
The matching figures for “CCUAUCCAGUCGGCCGCCACUGAAAACAGUGGGUGAACAUGAGGAUCACCCAUGUCGGAAUACCGCAGGACCGGGACUGUAUAGG [Ex Tryptophan B 23]”: 162 nM, 143 nM, 393 nM, 1220 nM and 574 nM.
For “CCUAUGCAGUCGGCCGCCACUGAUAAAGUUAUCUUUACCUCAGAAACAUGAGGAUCACCCAUGUACAGGACCGGGACUGUAUAGG [Ex Tryptophan B 18]”, the “apparent KD of MS2 coat protein” value runs as follows: (input ligand: arginine 13.2 mM) 14.8 nM; under setting [1], 14.6 nM; under setting [3], 15.9 nM.
“CCUCAAUCGUCGGCCGCCACUGAAUCAUGCGGAUACAUGAGGAUCACCCAUGUGGGUGUGGUACGCAGGACCGGGACAAGACCCG [#14 Same State - Tryptophan B]”: the “apparent KD of MS2 coat protein” value by setting is: (input ligand: arginine 13.2 mM) 154 nM; (input ligand: none) 203 nM; under setting [1], 337 nM; under setting [3], 860 nM; under setting [2], 152 nM.
With “CCUCAGCAAUUGGAUACCAGUACAUCGUAAGACAUGAGGAUCACCCAUGUGGGCUUGACAUACCCUUGGCAGCCAUCCUUGAUCC [theeternabot_sameState_MS2_Theo_B_3]”, the “apparent KD of MS2 coat protein” value (input ligand: arginine 13.2 mM) worked out at 101 nM and the “apparent KD of MS2 coat protein” value under setting [2] worked out at 250 nM.
“CCUGACAUGAGGAUCACCCAUGUGUGAGCACGAGGACCGGUACGGCCGCCACUCGCGUUGCCGGCCGGACUAUCUGGCGAAGUCA [theeternabot_sameState_MS2_Trp_A_10]”: the “apparent KD of MS2 coat protein” value was determined as 28.3 nM (input ligand: arginine 13.2 mM), 39.6 nM under setting [1] and 41.4 nM under setting [3].
With “CCUUUGUAGCGAAGGAGCGCGUGACUUAGCUCAUGUAAACAUGAGGAUCACCCAUGUGACACGCAGGUAGGUCGCGCUAUGAAGG [Arg B Ex t3]”, the “apparent KD of MS2 coat protein” value by setting is: (input ligand: arginine 13.2 mM) 22.2 nM; (input ligand: none) 22.3 nM; under setting [1], 28.7 nM; under setting [3], 23.5 nM; under setting [2], 21.9 nM.
On to “CGAUAUAAGACGGCCGCCACUAUUAAGUAUCAAAAUAAACAUGAGGAUCACCCAUGUACAUGGGAUAGGACCGGGUCCAAUAACG [A2]”, for which the “apparent KD of MS2 coat protein” value stood at 40.7 nM (input ligand: arginine 13.2 mM); 128 nM (input ligand: none); 123 nM under setting [1]; 208 nM under setting [3]; 70.2 nM under setting [2].
The matching figures for “CGCACAUGAGGAUCACCCAUGUGAGGGCGGCGAGGACCGGUACGGCCGCCACUCGCAAAACAUGAGGAUCACCCAUGUGCCGCCG [SSTA DOUBLE!!! :-D #2]”: 30.1 nM, 32.9 nM, 92.3 nM, 103 nM and 29.2 nM.
